Results taken from the supplement of paper PMC10065799, “High-throughput profiling of sequence recognition by tyrosine kinases and SH2 domains using bacterial peptide display” (eLife, 2023).

Experiments:
AncSZ = assay: phosphorylation enrichment, bacterial display (enrichment ratio); higher = better substrate or ligand; peptides without Tyr show the background
EPHB1 = EPHB1 (UniProt P54762); assay: as above
EPHB2 = EPHB2 (UniProt P29323); assay: as above
FGFR1 = FGFR1 (UniProt P11362); assay: as above
FGFR3 = FGFR3 (UniProt P22607); assay: as above
Fer (mouse) = assay: as above
Fes = Fes (UniProt P07332); assay: as above
Fyn = Fyn (UniProt P06241); assay: as above
Hck = Hck (UniProt P08631); assay: as above
Jak2 = Jak2 (UniProt O60674); assay: as above
MERTK = MERTK (UniProt Q12866); assay: as above
c-Abl (mouse) = assay: as above
c-Src = assay: as above
Grb2 SH2 = Grb2 SH2 (UniProt P62993); assay: SH2 binding enrichment of the phosphorylated peptide, bacterial display (enrichment ratio); higher = better substrate or ligand; peptides without Tyr show the background
SHP2-C SH2 = assay: as above
c-Src SH2 = assay: as above
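Throughout, for SH2 binding enrichment of the phosphorylated peptide, bacterial display: peptide library displayed on the E. coli surface as eCPX fusions, selected cells deep-sequenced, score is each peptide's frequency after selection divided by its frequency in the input.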
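Throughout, for phosphorylation enrichment, bacterial display: 11-residue human phosphosite peptides and single-mutation variants displayed on the E. coli surface, counted by deep sequencing, each peptide's frequency after selection divided by its frequency in the unselected input library; frequency after pTyr selection over input frequency; kinase dosed for 20-30% of maximal phosphorylation in three min.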

Chain of EPHB1 (P54762 whole entry, looked up): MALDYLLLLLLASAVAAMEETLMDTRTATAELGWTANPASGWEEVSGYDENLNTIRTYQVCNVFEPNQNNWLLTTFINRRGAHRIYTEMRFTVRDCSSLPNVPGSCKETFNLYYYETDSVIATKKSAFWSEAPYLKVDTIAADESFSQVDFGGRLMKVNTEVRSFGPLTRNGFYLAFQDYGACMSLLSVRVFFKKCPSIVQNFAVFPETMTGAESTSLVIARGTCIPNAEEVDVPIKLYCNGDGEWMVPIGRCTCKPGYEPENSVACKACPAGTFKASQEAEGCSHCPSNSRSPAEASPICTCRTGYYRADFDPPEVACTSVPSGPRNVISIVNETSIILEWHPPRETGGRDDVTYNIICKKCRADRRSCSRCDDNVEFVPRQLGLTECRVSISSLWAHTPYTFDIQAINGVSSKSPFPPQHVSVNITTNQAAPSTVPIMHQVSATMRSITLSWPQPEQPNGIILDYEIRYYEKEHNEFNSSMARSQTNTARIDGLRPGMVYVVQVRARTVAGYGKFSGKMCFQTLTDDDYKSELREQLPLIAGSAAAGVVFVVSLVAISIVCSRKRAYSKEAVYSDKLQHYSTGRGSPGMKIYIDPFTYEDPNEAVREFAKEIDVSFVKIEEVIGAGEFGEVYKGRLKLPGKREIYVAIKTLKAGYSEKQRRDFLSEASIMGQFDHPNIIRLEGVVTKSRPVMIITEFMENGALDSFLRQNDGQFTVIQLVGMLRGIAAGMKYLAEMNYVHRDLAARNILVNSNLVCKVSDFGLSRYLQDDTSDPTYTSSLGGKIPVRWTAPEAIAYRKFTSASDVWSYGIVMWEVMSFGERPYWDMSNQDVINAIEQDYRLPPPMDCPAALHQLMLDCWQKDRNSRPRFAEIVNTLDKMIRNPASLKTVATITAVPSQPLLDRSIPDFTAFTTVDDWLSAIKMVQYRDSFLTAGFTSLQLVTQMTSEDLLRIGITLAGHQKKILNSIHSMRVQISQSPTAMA
Chain of MERTK (Q12866 whole entry, looked up): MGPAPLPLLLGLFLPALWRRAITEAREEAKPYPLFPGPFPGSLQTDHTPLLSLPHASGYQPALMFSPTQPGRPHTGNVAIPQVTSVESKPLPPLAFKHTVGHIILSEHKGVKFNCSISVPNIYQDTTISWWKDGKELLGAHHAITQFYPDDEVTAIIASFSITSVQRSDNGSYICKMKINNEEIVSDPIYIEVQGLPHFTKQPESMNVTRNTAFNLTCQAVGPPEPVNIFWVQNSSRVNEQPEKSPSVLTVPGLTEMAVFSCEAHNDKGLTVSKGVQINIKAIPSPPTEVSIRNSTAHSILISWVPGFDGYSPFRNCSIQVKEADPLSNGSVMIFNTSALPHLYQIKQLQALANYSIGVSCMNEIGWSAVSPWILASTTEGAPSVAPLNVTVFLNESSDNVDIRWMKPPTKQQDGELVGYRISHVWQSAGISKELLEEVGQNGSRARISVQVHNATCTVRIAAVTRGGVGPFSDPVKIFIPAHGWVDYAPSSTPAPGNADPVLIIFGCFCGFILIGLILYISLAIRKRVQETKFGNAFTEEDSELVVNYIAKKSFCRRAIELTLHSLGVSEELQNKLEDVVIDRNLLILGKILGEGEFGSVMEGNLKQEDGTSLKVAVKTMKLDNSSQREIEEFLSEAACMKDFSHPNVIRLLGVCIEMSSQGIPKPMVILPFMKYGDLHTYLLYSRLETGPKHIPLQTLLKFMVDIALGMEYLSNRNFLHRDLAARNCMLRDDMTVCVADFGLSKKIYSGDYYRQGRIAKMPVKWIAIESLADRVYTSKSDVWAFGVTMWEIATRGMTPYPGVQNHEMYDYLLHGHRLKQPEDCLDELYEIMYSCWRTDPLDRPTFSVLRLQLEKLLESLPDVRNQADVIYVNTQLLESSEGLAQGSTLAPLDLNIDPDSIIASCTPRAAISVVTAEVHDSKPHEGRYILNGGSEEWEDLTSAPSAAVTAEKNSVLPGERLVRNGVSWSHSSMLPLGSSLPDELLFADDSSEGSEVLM
Chain of Jak2 (O60674 whole entry, looked up): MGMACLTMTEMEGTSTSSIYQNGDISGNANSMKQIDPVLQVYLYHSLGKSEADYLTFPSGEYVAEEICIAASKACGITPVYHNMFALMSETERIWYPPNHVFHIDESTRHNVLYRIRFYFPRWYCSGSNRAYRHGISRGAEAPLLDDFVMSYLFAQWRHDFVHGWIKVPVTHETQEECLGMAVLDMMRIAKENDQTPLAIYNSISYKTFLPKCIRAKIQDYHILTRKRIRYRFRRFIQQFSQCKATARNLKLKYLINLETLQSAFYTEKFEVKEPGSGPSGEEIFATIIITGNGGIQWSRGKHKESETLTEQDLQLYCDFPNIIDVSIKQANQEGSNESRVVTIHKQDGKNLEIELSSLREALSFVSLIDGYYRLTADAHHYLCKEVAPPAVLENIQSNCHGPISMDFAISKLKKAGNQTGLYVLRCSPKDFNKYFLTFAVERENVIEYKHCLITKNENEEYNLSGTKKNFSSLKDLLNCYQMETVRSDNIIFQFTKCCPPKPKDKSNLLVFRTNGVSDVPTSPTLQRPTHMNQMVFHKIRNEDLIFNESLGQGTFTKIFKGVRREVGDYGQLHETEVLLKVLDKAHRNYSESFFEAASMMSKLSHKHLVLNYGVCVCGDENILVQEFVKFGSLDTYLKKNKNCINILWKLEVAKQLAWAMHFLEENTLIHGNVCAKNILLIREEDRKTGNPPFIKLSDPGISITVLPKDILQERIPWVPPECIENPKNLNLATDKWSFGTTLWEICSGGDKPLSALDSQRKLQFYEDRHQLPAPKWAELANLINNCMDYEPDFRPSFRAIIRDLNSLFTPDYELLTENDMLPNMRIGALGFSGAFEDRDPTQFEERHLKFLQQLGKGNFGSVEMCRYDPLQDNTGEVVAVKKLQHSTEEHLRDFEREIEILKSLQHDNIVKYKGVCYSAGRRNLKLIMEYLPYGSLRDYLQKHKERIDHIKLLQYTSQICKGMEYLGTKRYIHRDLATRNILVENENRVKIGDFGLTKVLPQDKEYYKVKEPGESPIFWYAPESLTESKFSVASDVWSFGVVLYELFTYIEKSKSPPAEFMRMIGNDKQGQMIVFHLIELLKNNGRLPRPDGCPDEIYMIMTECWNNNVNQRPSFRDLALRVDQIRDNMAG
Chain of EPHB2 (P29323 whole entry, looked up): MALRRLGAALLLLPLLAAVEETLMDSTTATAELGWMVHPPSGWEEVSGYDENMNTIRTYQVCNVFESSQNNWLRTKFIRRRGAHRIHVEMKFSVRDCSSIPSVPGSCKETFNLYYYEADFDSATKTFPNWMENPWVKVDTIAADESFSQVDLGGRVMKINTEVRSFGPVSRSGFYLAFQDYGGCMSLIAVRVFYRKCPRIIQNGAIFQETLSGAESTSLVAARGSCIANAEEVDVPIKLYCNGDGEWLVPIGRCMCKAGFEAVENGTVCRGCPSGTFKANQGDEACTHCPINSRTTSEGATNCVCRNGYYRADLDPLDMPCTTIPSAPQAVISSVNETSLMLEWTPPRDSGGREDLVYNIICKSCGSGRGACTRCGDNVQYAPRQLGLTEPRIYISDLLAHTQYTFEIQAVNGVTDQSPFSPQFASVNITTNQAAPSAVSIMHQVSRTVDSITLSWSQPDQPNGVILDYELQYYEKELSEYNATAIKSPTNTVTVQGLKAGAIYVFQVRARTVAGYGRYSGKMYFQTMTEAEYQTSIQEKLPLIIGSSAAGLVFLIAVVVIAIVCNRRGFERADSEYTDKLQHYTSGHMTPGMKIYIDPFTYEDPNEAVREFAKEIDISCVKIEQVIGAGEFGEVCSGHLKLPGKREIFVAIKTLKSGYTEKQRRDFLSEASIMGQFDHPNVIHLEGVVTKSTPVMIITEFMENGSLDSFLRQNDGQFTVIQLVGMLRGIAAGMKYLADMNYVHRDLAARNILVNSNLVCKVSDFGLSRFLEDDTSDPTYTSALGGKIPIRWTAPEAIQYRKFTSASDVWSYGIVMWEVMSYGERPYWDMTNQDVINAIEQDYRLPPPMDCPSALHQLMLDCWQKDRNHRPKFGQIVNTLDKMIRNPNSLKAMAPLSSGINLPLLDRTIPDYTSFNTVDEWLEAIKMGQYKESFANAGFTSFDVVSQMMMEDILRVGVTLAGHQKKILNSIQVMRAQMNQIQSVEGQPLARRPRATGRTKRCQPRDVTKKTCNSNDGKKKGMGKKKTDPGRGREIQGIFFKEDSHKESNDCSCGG
Chain of FGFR3 (P22607 whole entry, looked up): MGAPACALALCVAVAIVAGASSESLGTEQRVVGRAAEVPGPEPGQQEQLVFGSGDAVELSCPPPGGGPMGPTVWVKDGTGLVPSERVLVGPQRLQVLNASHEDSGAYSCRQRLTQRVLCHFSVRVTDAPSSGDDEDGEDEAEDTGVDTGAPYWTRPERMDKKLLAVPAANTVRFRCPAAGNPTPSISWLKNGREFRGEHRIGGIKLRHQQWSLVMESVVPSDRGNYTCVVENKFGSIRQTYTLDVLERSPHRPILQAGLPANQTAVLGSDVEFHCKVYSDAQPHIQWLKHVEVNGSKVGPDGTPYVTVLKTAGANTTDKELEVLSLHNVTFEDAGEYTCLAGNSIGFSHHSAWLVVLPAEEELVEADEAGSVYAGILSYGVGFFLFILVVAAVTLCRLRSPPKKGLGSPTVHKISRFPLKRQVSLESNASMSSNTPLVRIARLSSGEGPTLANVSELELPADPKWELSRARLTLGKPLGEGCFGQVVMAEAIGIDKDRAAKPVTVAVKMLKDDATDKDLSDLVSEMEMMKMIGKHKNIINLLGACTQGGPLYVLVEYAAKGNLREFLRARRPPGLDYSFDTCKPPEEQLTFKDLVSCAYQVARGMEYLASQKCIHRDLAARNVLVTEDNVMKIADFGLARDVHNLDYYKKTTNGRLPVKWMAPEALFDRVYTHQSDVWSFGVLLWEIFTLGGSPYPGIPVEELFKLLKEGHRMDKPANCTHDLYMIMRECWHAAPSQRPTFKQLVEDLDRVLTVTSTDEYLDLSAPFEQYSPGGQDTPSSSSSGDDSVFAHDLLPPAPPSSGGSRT

Row | Sequence | SH2 binding enrichment (Grb2 SH2) | SH2 binding enrichment (SHP2-C SH2) | SH2 binding enrichment (c-Src SH2) | phosphorylation enrichment (AncSZ) | phosphorylation enrichment (EPHB1) | phosphorylation enrichment (EPHB2) | phosphorylation enrichment (FGFR1) | phosphorylation enrichment (FGFR3) | phosphorylation enrichment (Fer (mouse)) | phosphorylation enrichment (Fes) | phosphorylation enrichment (Fyn) | phosphorylation enrichment (Hck) | phosphorylation enrichment (Jak2) | phosphorylation enrichment (MERTK) | phosphorylation enrichment (c-Abl (mouse)) | phosphorylation enrichment (c-Src)
1 | ARSHIYTFSSC [MEFV_Y741_A744S] | 0.893 | 1.46 | 0.751 | 0.867 | 0.519 | 0.665 | 0.547 | 0.681 | 0.497 | 0.917 | 1.3 | 0.61 | 0.714 | 0.62 | 0.578 | 1.15
2 | KEKLCYVALDF [ACTA1_Y220] | 0.727 | 1.04 | 0.46 | 1.26 | 0.737 | 0.676 | 2.4 | 2.15 | 1.29 | 1.17 | 1.03 | 1.27 | 2.68 | 4.72 | 0.877 | 1.81
3 | VTRDEYPSNPM [CEMIP2_Y1015_I1010V] | 0.67 | 0.783 | 0.564 | 0.6 | 0.411 | 0.417 | 0.323 | 0.491 | 0.339 | 0.751 | 0.356 | 0.397 | 0.696 | 0.487 | 0.523 | 0.394
4 | KVMANYVYKAG [MAML2_Y513_M514V] | 0.874 | 1.28 | 0.723 | 0.465 | 0.395 | 0.37 | 0.398 | 0.452 | 0.358 | 0.551 | 0.339 | 0.386 | 0.514 | 0.361 | 0.453 | 0.355
5 | LLQEWYMIISR [HUWE1_Y4066_R4063Q] | 1.08 | 1.09 | 0.623 | 2.05 | 2.11 | 0.921 | 1.04 | 2.45 | 0.821 | 2.39 | 0.766 | 1.1 | 3.08 | 1.1 | 1.81 | 1.25
6 | DGTESYHTVSS [PLK1_Y462_L463H] | 0.769 | 0.755 | 1.61 | 0.569 | 0.342 | 0.514 | 0.558 | 0.872 | 0.348 | 0.682 | 0.433 | 0.436 | 0.52 | 0.299 | 0.552 | 0.423
7 | TLSGTYQYIIA [FOXL2_Y81_I80T] | 0.828 | 1.43 | 1.93 | 1.05 | 5.25 | 2.21 | 5.91 | 3.44 | 5.51 | 1.08 | 1.06 | 3.11 | 1.05 | 7.42 | 1.05 | 1.17
8 | QDLLLYQTHSE [PKHD1_Y255_F253L] | 0.726 | 0.681 | 0.394 | 1.86 | 1.27 | 1.94 | 0.713 | 1.28 | 1.81 | 1.54 | 1.16 | 1.48 | 1.61 | 0.745 | 0.888 | 1.77
9 | KVNKIYFPDFI [LIG3_Y767_YF] | 0.946 | 0.844 | 0.692 | 0.799 | 0.427 | 0.399 | 1.24 | 1.26 | 0.4 | 0.855 | 0.455 | 0.543 | 0.712 | 0.473 | 0.566 | 0.478
10 | VFAPDYIAGVS [NOB1_Y366] | 0.927 | 0.755 | 0.544 | 1.05 | 0.657 | 0.646 | 0.537 | 0.807 | 0.647 | 1.38 | 0.585 | 0.651 | 0.934 | 0.547 | 0.844 | 0.55
11 | QTEAQYRFIYM [PTPN11_Y511] | 0.563 | 0.744 | 0.244 | 1.77 | 0.835 | 0.782 | 1.65 | 1.54 | 1.09 | 1.29 | 0.634 | 0.542 | 1.56 | 0.667 | 1.5 | 1.23
12 | YFRDGHMPRQY [GSS_Y270_Y270H] | 1.04 | 0.821 | 0.51 | 0.454 | 0.458 | 0.462 | 0.531 | 0.583 | 0.436 | 0.584 | 0.443 | 0.45 | 1.03 | 0.445 | 0.541 | 0.401
13 | RGLQVYHRRNA [LRP2_Y2010] | 0.674 | 0.604 | 0.486 | 1.41 | 0.755 | 0.86 | 1.1 | 0.889 | 0.803 | 1.05 | 0.964 | 0.783 | 1.2 | 1.2 | 0.957 | 1.49
14 | VITTLYIGFLG [KCNQ1_Y267_L262V] | 0.888 | 0.862 | 0.615 | 1.18 | 0.759 | 0.636 | 0.692 | 0.874 | 0.605 | 1.25 | 1.34 | 1.32 | 1.15 | 0.659 | 0.931 | 1.84
15 | LFIGQYSGKKE [L1CAM_Y1229_S1224L] | 0.924 | 0.745 | 0.843 | 1.41 | 0.984 | 1.11 | 1.02 | 1.13 | 0.901 | 2.22 | 1.07 | 1.02 | 1.77 | 0.972 | 1.07 | 1.12
16 | MDYRSYPREYG [RBM10_Y44] | 0.752 | 0.591 | 0.476 | 0.621 | 0.337 | 0.402 | 0.404 | 0.684 | 0.331 | 0.626 | 0.366 | 0.41 | 0.515 | 0.296 | 0.472 | 0.319
17 | YMKEPYIQSRF [HIPK4_Y175_V171M] | 1.12 | 0.832 | 0.865 | 0.622 | 0.364 | 0.392 | 0.611 | 0.623 | 0.488 | 0.703 | 0.461 | 0.36 | 0.855 | 0.659 | 0.632 | 0.563
18 | SECCKYKTDNP [OSMR_Y689_I691T] | 0.852 | 0.901 | 0.48 | 0.66 | 0.472 | 0.413 | 0.51 | 0.655 | 0.387 | 0.752 | 0.375 | 0.452 | 0.725 | 0.492 | 0.587 | 0.443
19 | FGLQAYTEVKT [ALDH2_Y502_YF] | 0.869 | 2.52 | 7.17 | 1.03 | 0.715 | 0.609 | 0.584 | 0.783 | 0.608 | 1.34 | 0.498 | 0.657 | 1.13 | 0.452 | 0.727 | 0.414
20 | KAIMTYVFSFY [ACTN4_Y260_S262F] | 0.987 | 1.08 | 0.561 | 1.19 | 0.63 | 0.592 | 0.559 | 0.794 | 0.54 | 1.27 | 0.438 | 0.464 | 1.06 | 0.436 | 0.966 | 0.507
21 | ETEMLYGSAPR [PRC1_Y464] | 0.784 | 0.686 | 0.437 | 0.889 | 0.433 | 0.513 | 0.474 | 0.557 | 6.32 | 0.805 | 6.44 | 6.51 | 0.556 | 0.414 | 0.716 | 5.25
22 | KDFETYQSFQN [CTNND2_Y1157_P1159S_YF] | 0.846 | 0.816 | 0.523 | 0.958 | 2 | 1.17 | 0.5 | 0.691 | 0.493 | 0.984 | 6.89 | 5.29 | 0.798 | 0.484 | 0.668 | 4.94
23 | RPDSPYSRLHD [DOK2_Y271_P274L] | 0.796 | 1.1 | 2.87 | 0.916 | 0.471 | 0.467 | 0.552 | 0.657 | 0.65 | 0.983 | 0.464 | 0.614 | 3.09 | 0.85 | 0.957 | 0.884

Continued, in another order:

Row | SH2 binding enrichment (Grb2 SH2) | SH2 binding enrichment (SHP2-C SH2) | SH2 binding enrichment (c-Src SH2) | Sequence | phosphorylation enrichment (AncSZ) | phosphorylation enrichment (EPHB1) | phosphorylation enrichment (EPHB2) | phosphorylation enrichment (FGFR1) | phosphorylation enrichment (FGFR3) | phosphorylation enrichment (Fer (mouse)) | phosphorylation enrichment (Fes) | phosphorylation enrichment (Fyn) | phosphorylation enrichment (Hck) | phosphorylation enrichment (Jak2) | phosphorylation enrichment (MERTK) | phosphorylation enrichment (c-Abl (mouse)) | phosphorylation enrichment (c-Src)
24 | 1.05 | 1.86 | 5.66 | CTNIHYNYMCN [TP53_Y234_T231N] | 0.754 | 0.734 | 0.537 | 0.468 | 0.62 | 0.522 | 0.82 | 0.464 | 0.437 | 0.799 | 0.418 | 1.62 | 0.408
25 | 0.964 | 0.678 | 0.563 | ELAVNYQEQAS [SLC9A9_Y591_I589V] | 0.96 | 0.563 | 0.694 | 0.605 | 0.883 | 0.519 | 1.06 | 0.534 | 0.559 | 0.829 | 0.435 | 0.66 | 0.496
26 | 1.36 | 0.446 | 0.373 | QGIIIYKAAFF [SLC25A4_Y187_R188K_YF] | 1.5 | 1.21 | 0.723 | 0.798 | 0.852 | 0.721 | 1.36 | 0.569 | 0.526 | 1.05 | 0.439 | 1.1 | 0.917
27 | 0.812 | 0.613 | 0.845 | GRLVEYDIDEV [SMS_Y134] | 1.28 | 0.709 | 1.05 | 0.494 | 0.771 | 0.658 | 1.48 | 0.508 | 0.549 | 1.45 | 0.489 | 0.902 | 0.563
28 | 1.3 | 1.06 | 0.863 | LLREWYLPDPF [SIX3_Y225_Q227P_YF] | 2.26 | 1.22 | 0.711 | 1.25 | 1.36 | 0.871 | 2.2 | 1.11 | 0.791 | 1.4 | 0.583 | 1.13 | 0.747
29 | 0.745 | 0.765 | 0.342 | NKVFTYIFIME [SCN4A_Y1074_D1069N] | 1.28 | 0.685 | 0.613 | 0.507 | 0.857 | 0.589 | 1.71 | 0.46 | 0.509 | 1.46 | 0.419 | 0.99 | 0.487
30 | 0.82 | 0.633 | 0.371 | HEGKIYEFNQV [ZNF665_Y162_YF] | 0.796 | 0.883 | 1.17 | 0.665 | 0.929 | 22.6 | 0.975 | 6.98 | 1.64 | 0.468 | 4.13 | 1.6 | 4.38
31 | 1.18 | 1.09 | 0.697 | KDHLDYKYQPR [SOX9_Y172_P170L] | 0.585 | 0.419 | 0.448 | 0.462 | 0.629 | 0.445 | 0.704 | 0.441 | 0.415 | 0.452 | 0.418 | 0.451 | 0.433
32 | 0.894 | 0.883 | 0.553 | CTTIHYFFMCN [TP53_Y234_N235Y_YF] | 0.966 | 0.515 | 0.534 | 0.413 | 0.635 | 0.384 | 0.982 | 0.424 | 0.37 | 1.07 | 0.309 | 0.662 | 0.279
33 | 1.11 | 0.828 | 1.02 | VAHAVYQAVLS [SMG1_Y549] | 0.899 | 9.09 | 7.85 | 0.656 | 0.591 | 8.18 | 0.935 | 5.92 | 8.28 | 0.666 | 4.22 | 1.14 | 4.58
